Measurements taken from patent publication US20100167321A1 (AICHI PREFECTURE, published 2010).

Target: T1, HLA-A2402 molecule on T2-A24 cells (human, UniProt P04439-2 25-302 at identity 0.92))
T1 construct: whole, on cells; Cell-surface HLA-A2402 of T2-A24 transfectants; also called HLA-A24 molecules
T1 MHC heavy: not shown
Experiment: MHC stabilization assay, T2-A24 cells with 10 µM peptide, anti-HLA-A2402 mAb staining, flow cytometry

Row | Binder | % MFI increase
1 | LYENNVITI (Synthetic peptide) [Ep185 (Ep-CAM 185-193 peptide LYENNVITI)] | 79%
2 | EMGEMHREL (Synthetic peptide) [Ep304 (Ep-CAM 304-312 peptide EMGEMHREL)] | 16%
3 | LFHSKKMDL (Synthetic peptide) [Ep225 (Ep-CAM 225-233 peptide LFHSKKMDL)] | 29%
4 | KYEKAEIKEM (Synthetic peptide) [Ep296 (Ep-CAM 296-305 peptide KYEKAEIKEM)] | 24%
5 | NYKLAVNCF (Synthetic peptide) [Ep31 (Ep-CAM 31-39 peptide NYKLAVNCF)] | 85%
6 | YYVDEKAPEF (Synthetic peptide) [Ep250 (Ep-CAM 250-259 peptide YYVDEKAPEF)] | 57%
